{"source": "patent US12138285B2", "about": "“Cholesterol reducing compositions and methods of use thereof” (The Broad Institute, Inc., priority 2019, dated 2024)", "type_in_all_cases": "biochemical", "key": {"cholesterol [1]": {"test_system": "cholesterol", "assay": "Lysate experiments for cholesterol oxidoreductase activity (E. coli BL21 lysates expressing COR/HSD enzymes), substrate cholesterol", "conditions": "E. coli lysate expressing the enzyme, 100 μM cholesterol, 100 μM NADP+ and NAD+, 37° C. 12 h, LC-MS", "protocol": "(§1) Candidate cholesterol oxidoreductase genes were amplified from genomic DNA (for E. coprostanoligenes) and cloned into pET28b. DNA was extracted from stool samples (DNeasy PowerSoil Kit, Qiagen) (for CAG:217, CAG:251 and CAG:341) or purchased from Genewiz (Ordered sequences are listed in Table 6). PCR reactions were performed with Phusion High Fidelity polymerase, and PCR products were purified (Zymoclean gel DNA recovery kit, Zymo research). The resulting gene products were assembled into pET28b using Gibson assembly and transformed into Stellar™ Competent Cells. The identities of the constructs were confirmed with DNA sequencing and transformed into E. coli BL21 strains for expression. All constructs were grown in LB with kanamycin (50 μg/mL) with the exception of the strain expressing the homolog from CAG:180 which required growth in TB for protein expression. […]\n(§2) 500 mL of a culture of E. coli BL21 expressing one of the cholesterol oxidoreductase homologs were pelleted by centrifugation (20 min at 7,000 g and 4° C.), resuspended in 10 mL of ice-cold phosphate-buffered saline containing one cOmplete Protease Inhibitor cocktail tablet (Roche Diagnostics) and lysed by a cell disruptor (EmulsiFlex-C3, Avestin). […] After incubation at 37° C. for 12 h, the reaction mixtures were frozen until being analyzed using LC-MS. […]"}, "coprostanol": {"test_system": "coprostanol", "assay": "Lysate experiments for cholesterol oxidoreductase activity, substrate coprostanol", "conditions": "E. coli lysate expressing the enzyme, 100 μM coprostanol, 100 μM NADP+ and NAD+, 37° C. 12 h, LC-MS", "protocol": "as §1, §2"}, "[2]": {"test_system": "primary bile acids cholic acid and chenodeoxycholic acid", "assay": "Lysate experiments for cholesterol oxidoreductase activity, substrate primary bile acids", "conditions": "E. coli lysate expressing the enzyme", "protocol": "FIG. 12A-12B CORs from human-associated gut microbes accept cholesterol and coprostanol but not primary bile acids. Activity assay with E. coli lysates (PBS, pH=7.4) expressing one of the cholesterol oxidoreductase enzymes from human-associated microbes with FIG. 12A. […] EIC for the products of both reactions are shown.\n500 mL of a culture of E. coli BL21 expressing one of the cholesterol oxidoreductase homologs were pelleted by centrifugation (20 min at 7,000 g and 4° C.), resuspended in 10 mL of ice-cold phosphate-buffered saline containing one cOmplete Protease Inhibitor cocktail tablet (Roche Diagnostics) and lysed by a cell disruptor (EmulsiFlex-C3, Avestin). Cell debris was removed by ultracentrifugation (30 min at 20,000 g and 4° C.). Protein expression was confirmed by SDS-PAGE analysis using 4-20% Mini-PROTEAN TGX gels (Bio-Rad Laboratories). Gels were stained with Coomassie Blue for visualization. The clarified supernatant was used directly in the cell lysate assay described below. Cholesterol or coprostanol (5 μL of a 10 mM solution of cholesterol or coprostanol in methanol) was added to 500 μL of clarified supernatant with 100 μM of NADP^+ and NAD^+. After incubation at 37° C. for 12 h, the reaction mixtures were frozen until being analyzed using LC-MS."}, "cholesterol [3]": {"test_system": "cholesterol", "assay": "In vitro activity assay of purified N-terminal His-tagged ECOP170 (cofactor dependence)", "conditions": "purified enzyme 1.5 μM, HEPES pH 7.5, 100 μM cholesterol, 100 μM NADP+ or NAD+", "protocol": "FIG. 11 In vitro activity assay of purified N-terminal His-tagged ECOP170 expressed in BL21 E. coli. Activity assay with ECOP170 (1.5 μM) in HEPES (pH=7.5, 50 mM, 300 mM NaCl) with 100 μM cholesterol and either 100 μM of NADP^+ (red) or 100 μM of NAD^+ (blue). EICs of 2 (rt 2.60, 385.244→108.988) are shown for both conditions.\nProteins were overexpressed using the procedure described above. Cells from 200 mL of culture were pelleted by centrifugation, resuspended in 10 mL of ice-cold lysis buffer (300 mM NaCl, 10 mM imidazole, 50 mM HEPES, pH 7.5) containing one cOmplete Protease Inhibitor cocktail tablet, and lysed by 4 min of continuous passage through a cell disruptor (EmulsiFlex-C3, Avestin) at 15,000 lbs per square inch. Cell debris was removed by ultracentrifugation (20 min at 20,000×g and 4° C.), and the cell-free extract was applied to 0.5 mL of HisPur Ni-NTA Resin (Thermo Scientific) pre-equilibrated with lysis buffer by gentle rocking at 4° C. for 2 h. Non-absorbed materials and weakly bound proteins were removed by washing the column with 2×25 mL of wash buffer (300 mM NaCl, 20 mM imidazole, 50 mM HEPES, pH 7.5). His6-tagged protein was eluted with 5 mL of elution buffer (300 mM NaCl, 200 mM imidazole, 50 mM HEPES, pH 7.5). […]"}}, "note": "Entries after “also recorded” stand apart in the source; their conditions may differ."}
{"molecule": "ECOP170: 3β-hydroxysteroid dehydrogenase / cholesterol oxidoreductase (COR, IsmA) enzyme from E. coprostanoligenes (protein) MSTCWLQGKTVVVTGASGGMGAGIAATLIKKHGCTVIGVARNEKKMLKFVDELGETYAKQFSYELFDVSSKENWEKFAEELQEKGVKVDVLINNAGILPKFKRFDRYSYEEIERAMNINFYSCVYSVKTMLPMLLQSSTPAIINIDSSAALMTLAGTSMYSASKAALKGFTEALRVEFQGKMFVGLVCPGFTKTDIFSGQGDADMSNGAKVMDMISTDCDKMVKMIMFGIEHKTPMQVHGFDAHAMSVFNRLMPVYGSKLFSSIMRMSNVDIFKEVFSD", "values": [{"measurement": "oxidation of cholesterol (1) to cholestenone (2)", "setting": "cholesterol [1]", "result": "converts cholesterol (1) to cholestenone (2); also recorded: oxidized cholesterol to 2; also recorded: oxidized cholesterol to cholestenone"}, {"measurement": "oxidation of coprostanol (4) to coprostanone (3)", "setting": "coprostanol", "result": "converts coprostanol (4) to coprostanone (3); also recorded: catalyzed the oxidation of coprostanol (4) to coprostanone (3); also recorded: showed activity towards coprostanol"}, {"measurement": "oxidation of primary bile acids cholic acid and chenodeoxycholic acid to keto bile acids", "setting": "[2]", "result": "unable to oxidize the primary bile acids cholic acid and chenodeoxycholic acid; also recorded: did not oxidize the primary bile acids cholic acid and chenodeoxycholic acid"}, {"measurement": "cofactor dependence of cholesterol oxidation", "setting": "cholesterol [3]", "result": "showed a strict dependence on NADP^+ and not NAD^+"}]}
